± gives the uncertainty stated by the source.
B1: FERM and PDZ domain-containing protein 4, residues 75 to 154; numbered along this chain, Q14CM0 (parent)
chain: APRKVEMRRDPVLGFGFVAGSEKPVVVRSVTPGGPSEGKLIPGDQIVMINDEPVSAAPRERVIDLVRSCKESILLTVIQP

Variants of: B1
Assay: abundance fitness (aPCA) (normalised: wild type 0, dead -1); higher = more abundant; growth selection in yeast, the domain comes from the species named
Settings: Homo sapiens

Variant | abundance fitness
V66R | -0.818 ± 0.028
V66L | 0.022 ± 0.022
V66A | -0.219 ± 0.024
V66K | -0.692 ± 0.043
V66Y | -0.382 ± 0.041
V66G | -0.73 ± 0.027
V66C | -0.08 ± 0.028
V66M | -0.004 ± 0.029
V66F | -0.056 ± 0.033
V66E | -0.427 ± 0.029
V66N | -0.733 ± 0.066
V66W | -0.475 ± 0.029
V66P | -0.881 ± 0.048
V66I | -0.009 ± 0.035
V66D | -0.681 ± 0.048
V66S | -0.569 ± 0.028
V66Q | -0.451 ± 0.035
V66H | -0.686 ± 0.056
V66T | -0.18 ± 0.026
D64T | -0.109 ± 0.026
D64I | -0.788 ± 0.051
D64M | -0.247 ± 0.031
D64N | -0.055 ± 0.03
D64V | -0.593 ± 0.032

Variant | abundance fitness
D64Q | -0.013 ± 0.029
D64Y | -0.252 ± 0.031
D64R | -0.049 ± 0.025
D64F | -0.354 ± 0.031
D64P | -0.51 ± 0.034
D64A | -0.081 ± 0.025
D64K | -0.06 ± 0.029
D64G | -0.038 ± 0.028
D64L | -0.466 ± 0.025
D64C | -0.295 ± 0.031
D64H | -0.045 ± 0.028
D64E | -0.011 ± 0.031
D64W | -0.222 ± 0.033
D64S | -0.023 ± 0.023
I73W | -0.954 ± 0.057
I73V | -0.025 ± 0.027
I73P | -0.57 ± 0.061
I73N | -0.369 ± 0.052
I73S | -0.462 ± 0.037
I73H | -0.793 ± 0.17
I73E | -0.463 ± 0.037
I73Y | -0.755 ± 0.092
I73C | -0.045 ± 0.039
I73T | -0.202 ± 0.038

Variant | abundance fitness
I73F | -0.242 ± 0.057
I73L | -0.023 ± 0.029
I73R | -0.669 ± 0.036
I73G | -0.565 ± 0.032
A57S | -0.009 ± 0.024
A57R | -0.12 ± 0.021
A57I | -0.055 ± 0.035
A57L | 0.032 ± 0.023
A57W | 0.016 ± 0.024
A57N | -0.149 ± 0.038
A57H | -0.083 ± 0.039
A57T | 0 ± 0.028
A57Y | 0.038 ± 0.037
A57M | 0.009 ± 0.028
A57Q | -0.028 ± 0.03
A57P | -0.816 ± 0.045
A57K | -0.055 ± 0.032
S68Y | -0.089 ± 0.037
S68P | -0.578 ± 0.033
S68F | -0.099 ± 0.037
S68I | -0.214 ± 0.041
S68C | -0.082 ± 0.032
S68D | -0.042 ± 0.032
S68K | -0.043 ± 0.03

Variant | abundance fitness
S68W | -0.21 ± 0.025
S68T | -0.043 ± 0.026
S68E | -0.007 ± 0.025
S68V | -0.17 ± 0.022
S68R | -0.048 ± 0.02
S68L | -0.092 ± 0.022
S68A | -0.033 ± 0.023
S68Q | -0.001 ± 0.026
S68M | -0.071 ± 0.028
L75T | -0.404 ± 0.063
L75E | -0.514 ± 0.054
L75R | -0.631 ± 0.045
L75K | -0.387 ± 0.07
L75Q | -0.542 ± 0.096
L75P | -0.185 ± 0.075
L75A | -0.332 ± 0.04
L75M | -0.022 ± 0.041
L75H | -0.553 ± 0.2
L75W | -0.629 ± 0.048
L75D | -0.343 ± 0.062
L75Y | -0.749 ± 0.13
L75F | -0.101 ± 0.047
L75V | -0.097 ± 0.032
L75S | -0.558 ± 0.051

Variant | abundance fitness
L75I | -0.118 ± 0.066
L75C | -0.257 ± 0.052
L75N | -0.773 ± 0.19
L74V | 0.012 ± 0.031
L74M | 0.011 ± 0.043
L74E | 0.005 ± 0.034
L74Y | 0.131 ± 0.092
L74P | -0.366 ± 0.068
L74N | -0.035 ± 0.079
L74I | 0.145 ± 0.096
L74A | -0.006 ± 0.032
L74K | 0.026 ± 0.049
L74F | 0.016 ± 0.062
L74S | 0.024 ± 0.038
L74R | 0.037 ± 0.031
L74G | 0.009 ± 0.026
L74D | 0.012 ± 0.05
L74T | -0.014 ± 0.043
L74H | 0.005 ± 0.13
L74Q | 0.03 ± 0.045
L74W | -0.024 ± 0.037
L74C | 0.038 ± 0.05
E71A | -0.095 ± 0.029
E71M | -0.198 ± 0.034

Variant | abundance fitness
E71Y | -0.231 ± 0.035
E71G | -0.041 ± 0.03
E71H | -0.081 ± 0.035
E71K | 0 ± 0.034
E71N | -0.106 ± 0.036
E71W | -0.215 ± 0.035
E71I | -0.261 ± 0.037
E71V | -0.164 ± 0.029
E71Q | -0.038 ± 0.031
E71R | -0.059 ± 0.025
E71D | 0 ± 0.036
E71S | -0.055 ± 0.026
E71L | -0.232 ± 0.026
E71T | -0.052 ± 0.028
E71P | -0.219 ± 0.033
E71C | -0.149 ± 0.038
I63K | -0.032 ± 0.037
I63E | -0.031 ± 0.041
I63H | -0.003 ± 0.039
I63S | 0.021 ± 0.03
I63D | -0.035 ± 0.044
I63A | 0.005 ± 0.04
I63Y | -0.087 ± 0.043
I63C | -0.093 ± 0.044

Variant | abundance fitness
I63W | -0.041 ± 0.043
I63Q | -0.001 ± 0.042
I63M | -0.027 ± 0.035
I63P | -0.846 ± 0.088
I63R | -0.033 ± 0.03
I63V | -0.002 ± 0.032
I63N | 0.034 ± 0.039
I63F | 0.016 ± 0.04
I63L | 0.009 ± 0.03
I63T | -0.061 ± 0.033
R61Q | -0.005 ± 0.032
R61T | -0.037 ± 0.03
R61P | -0.505 ± 0.04
R61Y | -0.019 ± 0.03
R61M | -0.059 ± 0.032
R61A | -0.018 ± 0.029
R61S | -0.029 ± 0.024
R61N | -0.041 ± 0.032
R61V | -0.044 ± 0.026
R61D | -0.021 ± 0.035
R61H | -0.012 ± 0.031
R61W | -0.082 ± 0.032
R61C | -0.065 ± 0.032

Source: the Human Domainome abundance scans (Beltran et al. 2025)
